Blank lines part the entries; values can stand above or below the binder they belong to.
Assays:
[1] = biological target: canine IgM µ-chain antigen (protein accession number E2RE31) (canine (Canis lupus familiaris)); test: staining of cells from CLBL-1 xenograft tumours
[2] = biological target: canine IgM µ-chain antigen (protein accession number E2RE31) (canine (Canis lupus familiaris)); test: flow cytometry screening of hybridoma clones on CLBL-1 cells

- % of tumour cells positive [1]: > 95%
- % binding (tier threshold of column) [2]: > 80%
B1: CL-m17A11 (antibody, V domains shown)
VH: QIQLQQSGPELVKPGASVKVSCKASGYSFTDYNIYWVKQSHGKSLEWIGFFDPHNGNTTYNQKFKGKATLTVDKSSSTAFMHLNSLTSEDSAVYYCAREGYLYAMDYWGQGTSVTVSS
VL: DVLMTQTPLSLPVSLGDQASISCRSSQSIEHSNGNTYLEWYLQKPGQAPKLLIFKVSNRFSGVPDRFSGSGSGTDFTLKISRMEAEDLGVYYCFQGSHVPPTFGGGTKLEIKR

- % of tumour cells positive [1]: > 95%
B2: CL-c17A11 (antibody, V domains shown)
VH: B1 VH
VL: B1 VL

— patent US20250277060A1
